According to a protein production outcome set (Wang et al. 2014):

Experiment: label from the status in PepcDB records

Sequence | protein production
MGKIQELSEQLANQIAAGEVVERPASVVKELVENALDAGSTQIDIFIEEAGLKTIQIIDNGEGIAKEDVLNAFKRHATSKIHTRDDLFRIRSLGFRGEALPSIASVSEMIVETATAEEEEGSYVILKGGKVEENRPAALRKGTKMTVSNLFYNTPARLKYVKTIQTELANIGDIVNRLALSHPKVAFRLVHDGHKMMSTTGNGDLKQTIAGIYGISTAKKMLKIEGKDLDFTLTGYVSLPEVTRASRNYLSTIINGRYIKNFALNKAIVAGYGSKLMVGRFPIAVLEIEMDPLLVDVNVHPTKQEVRLSKEKDLMALIEQAIQEVLSQEQLIPNAADNLRFKKKLPPEPKAEQMEIPLSTEQPAVKQRPGSLSYNPATGRFYAEHATDETPASSAPEAVNQTERAVDPMDDPFAPPVPESTSVAEETSAYETSSAAADSANHWETASNEQQVIAEETKITEVPDSEPSLRSSEAADEVFQEEMKLHPEFDANSAASQRELKQALNKLEEERPTERFPELEYFGQMHGTYLFAQSKDGLFIIDQHAAQERIKYEYFREKIGEVSDDLQELLVPIVIDYPNSDALKIKEQKETLAEVGIHLEDFGQNSFIVRAHPTWYPAGEEESIVREMIDMLLTTGSVSVKKFREATAIMMSCKRSIKANHYLNEQQARVLLKDLALCENPFNCPHGRPVLIHFTNSDMERMFKRIQDPH | failed
GPLQVSNARLLFPISMPEDEGVVRLVVNNTDESDLQVAVVSLPSFVSLDDRAFRLQAREPRELNLSLAVPRNMPPGMKDEPLVLEVTSPETGKKAVDSVMVSLPLVDNFPALTAAQTGVMELSTYLDMGQLDGETTKAAIEIRNVGAGPLRLHSVTTRNPALTAVPDRTEIKPGGSTLLRIAVDPQVMKAEGWQSIAADISIICNDPQAPLRRIKVKAEL | not failed
MHHQSVLHSGYFHPLLRSWQTAASTVSASNLIYPIFVTDVPDDVQPIASLPGVARYGVNQLEEMLRPLVEAGLRCVLIFGVPSRVPKDEQGSAADSEDSPTIEAVRLLRKTFPSLLVACDVCLCPYTSHGHCGLLSENGAFLSEESRQRLAEVALAYAKAGCQVVAPSDMMDGRVEAIKAALLKHGLGNRVSVMSYSAKFASCFYGPFRDAAQSSPAFGDRRCYQLPPGARGLALRAVARDIQEGADMLMVKPGLPYLDMVREVKDKHPELPLAVYQVSGEFAMLWHGAQAGAFDLRTAVLETMTAFRRAGADIIITYFAPQLLKWLKEE | failed
MSKGTLFDKVWDLHTVGTLPSGLTQLFIGLHLVHEVTSPQAFAMLRERGLKVLFPERTVATVDHIVPTENQARPFVDRLAEEMIQALEQNCQENNITFYNIGSGNQGIVHVIAPELGLTQPGMTIACGDSHTSSHGAFGAIAFGIGTSQVRDVLASQTLSLSKLKVRKIEVNGTLNPGVYAKDVILHIIRTLGVKGGVGYAYEYAGTTFEQMNMEERMTVCNMAIEGGARCGYVNPDQVTYDYLQGRDFAPQGADWEKAVAWWESIKSDADAEYDDVIVFNAADIPPTVTWGITPGQGIGVNQLIPQPEELLEEDRFVAEEAYRYMDLYPGQPIKGTKIDVCFIGSCTNGRLSDLQEAAKIAKGRHVAEGVKAFVVPGSERVKKAAEAEGLDKIFEAAGFEWREPGCSMCLAMNPDKLEGRQISASSSNRNFKGRQGSASGRTLLMSPAMVATAAIQGEVADVRELL | not failed
SADEAPSSADEAPSSAVEQIVAPVDFSDLTEVALRHVAQIAPLYDVPVTLVHVVEDPTMPSVYEVNASAVRARAAEQRAEEALQSLGAPIEETGVSVSYLVHRGQTTSTVVEATGHRDTLTVMGTKGLSGLRRVMLGSVTEAVIRASDGPVLAVPASAQEASPANE | failed
MDIGFLVFGLAGLLTLVCFMPPLAGRLKLPYSVLLALVGCLLGIGVHLHGWAPPVLGDLLDTIEHFEISSETFLMVFLPVLLFETALSMNVRRLIDDIGPILMMAIVAVVVCTLVVGFAVDAVSSYGLIVCLLLGAIVATTDPAAVVGIFREVGAPKRLTTLVEGESLFNDAASIALYSVLLAALGGSGELSVGAVFNDFIFHFVGGGLAGFLMGRLACALFAWLRGFPTAEITLTLTLAYLSFFISEHYLGVSGVVATVIAGLVVGSTGRTRMSPTTFEFLSSAWGQFGFWANSLIFLFAAMLIPKLMAEADWQELLLVLVVFAATLAARAIVVFGLLPLLRVARIGAEVSNPYKSVMWWGGLRGAVSLALALAVTEQSSVPEQARQFVAVATTGFVLMTLMINGVSLRPLIRMLGLNQLSPVERTIRNQVLAAALEDLQGRTEEIAKVDHVNPEARDRIRAVFDASLTSVHDGQVGQMTLDQRVAVGLSIVARREEEMFFDILKAQIVDWRLAEGLLARAERLEDAVRAGGLAGFEAGIVADVRYSRLFRMALRTHYMFGFQGWLARELGKRFASLLTKRSVARDLMKFAREQVAPLLGEEAADRIIAAHQRRLDLIENALQALTLQYPSYSLWLQESHLGRVARELERRRYRDMLEQFLISGEVYADLMAQLKARWQHIDKHPPLDIELGSAELVKRVPLFEGLSQDSLRAICRLLKPRLALPDQHILTEGRHGQEMCIVASGAVVVHLPDHTTIELGSGEFFGELALLGEEQLVPDVTSLGYSKLLMLSARDFHALLARDEHLRERIQTVAKQRMRAIEVWKQYSQAAAAAAASTASEDSAPA | failed
MTTSIQRRISIVIPCLNDAVLLEQCLSSIVAQTLQPEEVIVVDNGSTDNSVEVANRMGARVVHEPLQGITWASAAGYNSARGDLIVRFDADCVIPPDHLSQVNAIWNRTEETPGRTIVALTGTGSFDIPGRMGEWLALCYLGAYRWSTKQALGHYPIFGSNSVISRQWWEDVKDQITLSETFVHEDMYFSFFVRPHETVWFEKNLKLIMHPRALMGVRQSFIRLVRGFYTIKIAWKREPVHQRLESRRDWTLEHHHHHH | failed
MVIREALLYIAMLKLEIEALQREYEDLKITKKESLHQFQEVKVEKIGEMFQVKIKSPRGENNLVNILEAFEEMGLNVAQARASCLDSFAMEAIVAPQSKDKLCSVDDLTQTLVKALVKPSVPL | failed
MSLGELNVATVTRRPEILLVDSQEVILQRLQQLLSPLPYTLHFARDATQALQLLASREVDLVISAAHLPQMDGPTLLARIHQQYPSTTRILLTGDPDLKLIAKAINEGEIYRYLSKPWDDQELLLALRQALEHQHSERERLRLQDEGHHHHHH | not failed
MSLLERLNQDMKLYMKNREKDKLTVVRMVKASLQNEAIKLKKDSLTEDEELTVLSRELKQRKDSLQEFSNANRLDLVDKVQKELDILEVYLPEQLSEEELRTIVNETIAEVGASSKADMGKVMGAIMPKVKGKADGSLINKLVSSQLS | not failed
MTTKFVVGYDGSAASRRALDFAMERAKAGGASIIVAHVLEWSPYSFLTPTEIEERHKRRAEEMARAETAILAPLKAELAGSGVEIETAIRYGQVADTLCDIATKSGAAQIFIARQGESGLAARVFGSVAGTLAQYAPVPCTIVP | failed
MSSTTNPSTHHTSTIGAIGAPSRRNTELALLVFAVLIPVFAYANVGLAINDEVPAGLLSYGFGLGLLAGVGHLVVRKFAPYADPLLLPLATLLNGLGLVAIWRLDQSDRLQSSKLFVEAAPRQLMYSALGVALFVAVLVFLRDHRVLQRYTYISMAGALVLLLLPLVPGLGHDNFGAKIWIKIPGLGTLQPGEFAKIVLAVFFAGYLMVKRDALALASRRFMGLYLPRGRDLGPIIVVWIISILILVFETDLGTSLLFFGMFVIMLYVATERTSWIVFGLLMSAVGAVGVASFESHVQQRVQAWLDPMHEYELSRQGVFGHTEQSMQALWAFGSGGTLGSGWGQGNSDLIGFAANSDFILATFGEELGLAGLMALLLLYALIVERGVRTALAARDPFGKLLAIGLSGAFALQVFVVAGGVMGLIPLTGMTMPFLAYGGSSVIANWALIGILLRISDTARRPAPAAPANPDAEMTQVVRP | failed
MSLTRDAASITPARVRAHVFRYPVSTPVKTSFGTMHDRPAVLVEVEDSDGAVGWGEVWCNFPACGAEHRARLVETVLAPLLTARAFADPAQAFAHLEARTAVLAIQTGEPGPLAQAIAGLDIALCDLAARRAGQPLWAWLGGSGDRIGVYASGINPENPEDVVARKAAEGYRAFKLKVGFDDARDVRNALHVRELLGAATPLMADANQGWDLPRARQMAQRLGPAQLDWLEEPLRADRPAAEWAELAQAAPMPLAGGENIAGVAAFETALAARSLRVMQPDLAKWGGFSGCLPVARAVVAAGLRYCPHYLGAGIGLQASAHLLAAVPGLASPGLLEVDANDNPLRSLLSPALATLHEGRITLGGAPGLGVTPDLAALRAACAAREGHHHHHH | not failed
MSARSGFWYACSPPSAPGWCRFFDLLTCCTDEDGLMRDVALCCRSIAIDVRGLLRIDTQEGSAEKLRPSQTDVFNALASFLVAVGSQPYCNLASHPRHLDALAIPDTRYPIPDTQPMTFREPVDLVALNAASRDTLIEHLGIVFTEAGDDWLRATMPVDARTRQPYGLLHGGASVVLAETLGSSAGNLCVDMTTRMCVGLEINANHLRAATQGLVTGTARAVHVGRSTHVWDITIENPVGKRVCVSRLTLAVVARGNG | failed
GGTPSPQLTSRQEIAVVPKVFDASTMFLEAQMASIQILEQENKKIGYVHIWSNAADPYQQELQNELIYGRLRNADGLILDLRDGWGGGDISYLNIFTAKQSPSVTHVQRNGRRYTYNYQWKKPVVMLVNEGSRSSKEILAFNFQQNQIGPVLGTKTTGAVVAGRPYIMQDGSLLYVAVADVFLNGNQRLEGKGVTPDINVPFSLEYAQGVDPQKQTAIETLLKAL | failed
MRFKQNADHIVLTHVFNGGSAESAALCPQDKIIALDGYACTDFAAQWARYHVRAKINIHFFRAGILRQTVLTVQATALEHHHHHH | failed
MTILDRLTGLAFPAAVLRRAIKLADSGKAAEAFPLMAKAARAGIVDAEYRVARCYLEGAGVPPSRMEGARWLLRAADHGSADAQALLAALYVTGLVTSEADGKGPSEHLFKPDSAGKPDFTAAFDFATKAAEAGSATGQAILGYILTSGPASMRDADAAHRWYEKSASAGCAEGCLGFALSLARRGKRENRVRIAEEVRRAADAGLPTATYLLAVLTEHGLGVARDMAAAAQLYQAAAEKGLPSAQFRLGLALIDGALVGQDVAAGEAWMRRAALAGNIEAAYLLGDRHAKTQRPDFAEAANWYRRAAEAGHQAAARALASLYLTGNGVAEDVEEGARWLRSSASAGNQQAQTDLANLILGGAGEPDDGASVAGWFEAAASSGDLIAAFNLGLCFAKGVGVRQDEGQAAHWLRRAAEGVAEAQYMYARLLQDGRGVAADPTQARVWFARAADAGVLDARVALAEMLLNGRGGMPEPEAAMQLFEQAAADGHAGAMFAIGALYGAGHGLPLDQTTAQKWYAAAAGRGHSQAQFMLGRYLLKGLAGERDPVAARLWLERAAAHGISEAADELGAAGGSD | failed
MDKNILAIIFVAVGTYLIRYIPIHLHSKIKNIDEKVKEINEILIYSSTSVISALFITSFIKFPIIFSNVLISTISLIFAIVSYKKWNNLGISILISVVIYYLASKFLISI | failed
